Laboratory results: publication PMC4347018

Tests used:
[1] = biological target: Cytolysin A (ClyA) wild type, N-terminally His6-tagged (E. coli) (UniProt P77335); assay: FRET or BRET; single-molecule intramolecular FRET of ~100 pM labelled ClyA freely diffusing, with 5 nM to 5 uM unlabelled ClyAwt; assembly triggered with 0.1% (w/v) DDM by manual mixing; 22 °C; 20 mM potassium phosphate pH 7.3, 150 mM NaCl, 0.001% Tween-20, 10 mM DTT; global fit of the histogram time series with the non-sequential assembly model (irreversible steps)
[2] = biological target: Cytolysin A (ClyA) wild type, N-terminally His6-tagged (E. coli) (UniProt P77335); assay: FRET or BRET + cross-linking; rate coefficient of pore closure in the non-sequential assembly model fitted to the single-molecule FRET data, set so that the predicted formation of complete pores matches the cross-linking data (500 nM ClyAwt, 0.1% DDM, 22 °C)

Substance | k5 (association rate coefficient of all oligomerization steps that lead to incomplete pores) [1] | k6 (association rate coefficient of pore closure, two oligomers to the complete pore) [2]
ClyA Q56C/E252C labelled with Alexa Fluor 488 at Cys56 and Alexa Fluor 594 at Cys252 (from UniProt P77335 2-303) (natural protein) | 102000 M⁻¹ s⁻¹ | –
Cytolysin A (ClyA) wild type, N-terminally His6-tagged (from UniProt P77335 2-303) (natural protein) | – | > 1e+07 M⁻¹ s⁻¹
